These results are taken from US20090252729A1 (Biogen, published 2009).

Assay [1] deals with T1, human LTα1β2 on phorbol myristate acetate activated II-23 cells (human, UniProt P01374 35-205; Q06643 1-244).
T1 construct: whole, on cells
T1 sequence (looked up) 1: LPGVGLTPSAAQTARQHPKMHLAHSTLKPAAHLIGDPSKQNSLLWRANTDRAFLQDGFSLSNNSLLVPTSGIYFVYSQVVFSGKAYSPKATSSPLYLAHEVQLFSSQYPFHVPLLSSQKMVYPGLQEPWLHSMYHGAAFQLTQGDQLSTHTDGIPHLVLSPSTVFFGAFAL
T1 sequence (looked up) 2: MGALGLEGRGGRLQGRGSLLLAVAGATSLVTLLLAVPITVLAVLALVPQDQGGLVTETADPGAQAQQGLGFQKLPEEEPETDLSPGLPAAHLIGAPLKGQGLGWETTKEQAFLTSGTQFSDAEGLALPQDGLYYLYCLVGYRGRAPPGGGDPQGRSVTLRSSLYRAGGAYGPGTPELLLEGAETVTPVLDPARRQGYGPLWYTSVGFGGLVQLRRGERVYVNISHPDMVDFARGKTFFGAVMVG
Nature of the assay: FACS direct binding on PMA-activated II-23 cells, mean fluorescence (MFI). How it is done: The binding affinity of the monomeric LTβR:scFc was also evaluated by FACS analysis (FIG. 59B). FACS was done on II-23 cells according to the methods of Eldredge et al. (Eldredge, Berkowitz et al. 2006). FACS binding assays using flow cytometry were done according to the method previously described (Force, Walter et al. 1995). Briefly, in direct binding assays human LTα1β2 was detected on phorbol myristate acetate activated II-23 cells (American Type Culture Collection (ATCC) Manassas, Va.) in FACS buffer with varied concentrations of either the LTβRIgG or biotinylated LTβRIgG (bLTβRIgG). Cells were incubated on ice for 1-2 h then washed with PBS and centrifuged. The appropriate steptavidin phycoerythrin or anti-hFc phycoerythrin labeled secondary (Molecular Probes, Eugene, Oreg.) in FACS buffer was added and incubated with the cells for an additional 1 h and washed again. The fluorescent staining of the cellular bound LTβRIgG on the II-23 cells was quantified by determining the mean channel fluorescence by FACS. Both the FACS and ELISA show the LTβRscFc has a reduced binding affinity compared with LTβRIgG.

Assay [2] addresses T2, LTα1β2 (coated on ELISA plates) (Homo sapiens (Human), UniProt P01374 35-205; Q06643 49-244, Heterotrimer of one alpha and two beta chains, as the name says.).
T2 construct: Heterotrimer of one alpha and two beta chains by its name; also called LTa1β2; copies: 1 + 1
T2 sequence (alpha): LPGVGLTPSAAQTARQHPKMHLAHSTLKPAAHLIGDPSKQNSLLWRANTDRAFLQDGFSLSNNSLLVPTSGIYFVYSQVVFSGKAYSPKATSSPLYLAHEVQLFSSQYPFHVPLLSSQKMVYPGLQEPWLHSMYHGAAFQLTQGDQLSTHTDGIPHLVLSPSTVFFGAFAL
T2 sequence (beta): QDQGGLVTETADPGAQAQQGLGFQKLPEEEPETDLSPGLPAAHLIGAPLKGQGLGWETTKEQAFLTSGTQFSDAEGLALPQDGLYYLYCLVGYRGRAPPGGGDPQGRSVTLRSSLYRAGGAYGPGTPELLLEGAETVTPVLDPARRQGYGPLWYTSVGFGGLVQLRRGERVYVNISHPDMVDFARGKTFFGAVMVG
The assay is described as follows: ELISA on plates coated with 5 ug/ml LTα1β2, detected with anti-human HRP secondary antibody. The value is parameter C (midpoint) of the four-parameter fit y = ((A-D)/(1+(x/C)^B))+D printed under the plot. The unit is taken from the x axis. The procedure: FIG. 59A depicts the results of an ELISA evaluating the binding affinity of the monomeric LTβR:scFc to LTα1β2. ELISA plates were coated overnight at 4° C. with 5 ug/ml LTα1β2 in PBS. Plates were then blocked with 1% Casein in 10 mM PBS, pH 7.0, then washed with 10 mM PBS, pH 7.0, 0.1% Tween 20 (wash buffer) three times. LTβR:IgG or LTBβ:scFc serially diluted into 10 mM PBS, 362 mM NaCl, 0.055 Tween-20, 0.1% Casein, 5% FBS pH 7.0 (assay diluent) and incubated for 1 h, then washed with wash buffer. To each well was added Donkey anti-human heavy and light specific HRP (Jackson Labs) conjugated secondary antibody diluted 1:5000 in assay diluents for 60 min then washed with PBS. The HRP was developed using tetramethybenzidine and hydrogen peroxide in 100 mM NaAcetate pH 4.0 after several minutes, the assay was stopped by the addition of 100 uL of 1N sulfuric acid and sample absorbance read at 450 nm.
For orientation: An ELISA detects its analyte on a solid surface through an enzyme-linked reagent.

Assay [3] addresses T3, human FcγR IIa (CD32a) (human, UniProt P12318 34-217, limits assumed).
T3 sequence (looked up): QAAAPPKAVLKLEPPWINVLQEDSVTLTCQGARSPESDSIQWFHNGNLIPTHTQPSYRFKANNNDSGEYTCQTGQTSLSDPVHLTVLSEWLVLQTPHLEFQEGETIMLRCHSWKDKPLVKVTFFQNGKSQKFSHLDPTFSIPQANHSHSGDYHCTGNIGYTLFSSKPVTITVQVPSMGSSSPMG
The assay is described as follows: Alphascreen assay, human FcγR CD32a (R).

For assay [4], the target named is T4, cynomolgus FcγR IIa (CD32a) (cynomolgus, UniProt A0A140HDN0 28-215).
T4 sequence: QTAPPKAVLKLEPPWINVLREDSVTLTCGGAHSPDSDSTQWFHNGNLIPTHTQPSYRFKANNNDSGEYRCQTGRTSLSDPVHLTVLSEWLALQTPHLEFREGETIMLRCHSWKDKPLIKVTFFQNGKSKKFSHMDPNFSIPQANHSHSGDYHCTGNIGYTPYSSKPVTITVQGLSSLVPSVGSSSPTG
Nature of the assay: Alphascreen assay, cynomolgus FcγR CD32a (R).

The target of assay [5] is T5, cynomolgus FcγR IIb (CD32b) (cynomolgus, UniProt A0A140HDP4 43-217).
T5 sequence: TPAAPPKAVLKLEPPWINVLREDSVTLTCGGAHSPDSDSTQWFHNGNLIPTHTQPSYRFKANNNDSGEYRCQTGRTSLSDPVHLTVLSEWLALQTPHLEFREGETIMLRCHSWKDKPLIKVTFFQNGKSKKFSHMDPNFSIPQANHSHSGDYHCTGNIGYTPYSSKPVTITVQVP
The assay is described as follows: Alphascreen assay, cynomolgus FcγR CD32b.

Assay [6] addresses T6, human FcγR IIb (CD32b) (human, UniProt P31994 43-217, limits assumed).
T6 sequence (looked up): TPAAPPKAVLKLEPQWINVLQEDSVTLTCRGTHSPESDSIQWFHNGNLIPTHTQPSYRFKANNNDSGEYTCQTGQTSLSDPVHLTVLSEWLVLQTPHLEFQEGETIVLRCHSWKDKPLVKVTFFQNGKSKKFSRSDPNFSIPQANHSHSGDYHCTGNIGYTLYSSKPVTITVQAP
Nature of the assay: Alphascreen assay, human FcγR CD32b. Background: Bead proximity is the source of the signal in Alpha formats.

For assay [7], the target named is cynomolgus FcγR III (CD16a) (cynomolgus, UniProt Q8SPW2 17-208, limits assumed). The assay is described as follows: Alphascreen assay, cynomolgus FcγR CD16a.
Assay [8] concerns the target T7, human FcRIII-GST (CD16a, V158) (human, UniProt P08637 17-208, limits assumed).
T7 construct: also called human FcγRIII; FcγRIII (CD16a); not shown: GST tag
Nature of the assay: Alphascreen assay, human FcγR CD16a. The procedure: (§1) The ability of scFc antibodies comprising GGGGS (“1×-G4S”) or (GGGS)3 (“3×-G4S”) linkers to engage Fcγ receptors was also evaluated in an Amplified Luminescent Proximity Homogeneous Assay (Alphascreen®; Perkin Elmer). Laser excitation (680 nm) of a donor bead generates singlet oxygen which, if in close proximity to an acceptor bead, initiates a cascase of events ultimately leading to fluorescence emission at 520-620 nm. Donor and acceptor beads decorated with ligand and receptor proteins, respectively, are brought into desired proximity only when the receptor and ligand become functionally engaged.
(§2) The Alphascreen® assay was performed in a competitive format in which serial dilutions of test antibodies (WT IgG1 or scFc) were incubated with human FcRIII-GST (CD16a, V158) and anti-GST acceptor beads overnight at 4° C. in a 96-well white plate. Streptavidin donor beads and biotinylated wild-type IgG1 were also incubated overnight at 4° C. in a separate tube and then added to the assay plate the next day. After a two-hour incubation at room temperature with gentle shaking the plates were read in an Envision® plate reader (Perkin Elmer).

Assay [9] deals with T7, human FcRIII-GST (CD16a, V158). Nature of the assay: Alphascreen competition assay, huCD16a V158-GST on anti-GST acceptor beads; competitor: biotinylated wild-type IgG1 on streptavidin donor beads. Further details: IC50 (read off the curve): unit not given here. The procedure: as §1, §2
The target is the same in assay [10]. Nature of the assay: Alphascreen, competitive format, competitor biotinylated wild-type IgG1. The procedure:
as §1, §2

Assay [11] shares this target. Nature of the assay: Alphascreen. The procedure: as §1, §2

B1: LTβR:IgG, dimeric (Fc fusion, not shown: a dimerising Fc or GST; small tags and cut ends)
chain: QAVPPYASENQTCRDQEKEYYEPQHRICCSRCPPGTYVSAKCSRIRDTVCATCAENSYNEHWNYLTICQLCRPCDPVMGLEEIAPCTSKRKTQCRCQPGMFCAAWALECTHCELLSDCPPGTEAELKDEVGKGNNHCVPCKAGHFQNTSSPSARCQPHTRCENQGLVEAAPGTAQSDTTCKNPLEPLPPEMSGTMLM
modifications: Dimeric through its Fc, which is left out. A biotinylated form (bLTβRIgG) was also used in FACS.
notes: Conventional dimeric receptor-Fc fusion used as the comparator; also called bLTβRIgG (biotinylated)
A word on the EC50 (read off the curve): it is the midpoint of the concentration-response curve. For orientation: EC50 means the concentration giving half of the maximal effect. Regarding B1, the “EC50 (read off the curve)” value in [1] is ~0.1 µg/mL. In addition, the EC50 in [2] was found to be 0.028 µg/mL.

B2: Hu5C8, conventional human IgG1 anti-CD40L antibody (antibody)
heavy: not shown
light: DIVLTQSPATLSVSPGERATISCRASQRVSSSTYSYMHWYQQKPGQPPKLLIKYASNLESGVPARFSGSGSGTDFTLTISSVEPEDFATYYCQHSWEIPPTFGGGTKLEIKRTVAAPSVFIFPPSDEQLKSGTASVVCLLNNFYPREAKVQWKVDNALQSGNSQESVTEQDSKDSTYSLSSTLTLSKADYEKHKVYACEVTHQGLSSPVTKSFNRGEC
modifications: N-glycan at EU N297; biotinylated (sites not given) in the CD40L ELISA
notes: Human IgG1, fully glycosylated, bivalent; Biotinylated in the CD40L ELISA; also called WT 5c8 hIgG1; WT 5C8 hIgG1
As for B2, the EC50 turned out to be 511 nM in assay [3]; 359 nM in assay [4]; 52 nM in [5]; 292 nM in assay [6]; 37 nM in [7]; 22 nM in [8]. Besides, it took 12 nM to reach a half-maximal effect in assay [9] (EC50).

B3: 3×G4S-linked hemiglycosylated 5C8 scFc IgG1 antibody (pASK043) (antibody)
heavy: not shown
light: DIVLTQSPATLSVSPGERATISCRASQRVSSSTYSYMHWYQQKPGQPPKLLIKYASNLESGVPARFSGSGSGTDFTLTISSVEPEDFATYYCQHSWEIPPTFGGGTKLEIKRTVAAPSVFIFPPSDEQLKSGTASVVCLLNNFYPREAKVQWKVDNALQSGNSQESVTEQDSKDSTYSLSSTLTLSKADYEKHKVYACEVTHQGLSSPVTKSFNRGEC
notes: One heavy scFc chain and one light chain (monovalent); also called monovalent 3×G4S-linked hemiglycosylated scFc; hemi-glycosylated 3×-G4S linked scFc
As for B3, the EC50 in [3] worked out at 949 nM; in assay [4], 221 nM; in assay [5] it was 72 nM; in [6], 552 nM; in assay [7], 89 nM; in [8], 59 nM. In [9], this molecule registered an EC50 of 77 nM. In addition, in [10], the “fold lower affinity against fully glycosylated WT human IgG1” value was ~4 fold.

B4: 1×G4S-linked hemiglycosylated 5C8 scFc IgG1 antibody (pEAG2066) (antibody)
heavy: not shown
light: DIVLTQSPATLSVSPGERATISCRASQRVSSSTYSYMHWYQQKPGQPPKLLIKYASNLESGVPARFSGSGSGTDFTLTISSVEPEDFATYYCQHSWEIPPTFGGGTKLEIKRTVAAPSVFIFPPSDEQLKSGTASVVCLLNNFYPREAKVQWKVDNALQSGNSQESVTEQDSKDSTYSLSSTLTLSKADYEKHKVYACEVTHQGLSSPVTKSFNRGEC
notes: plasmid not given; also called hemi-glycosylated 1×-G4S linked scFc; 1×G4S linked scFc
On to B4, for which the “fold weaker binding against WT IgG1” value in [11] is ~60 fold. For the same molecule, the “fold lower affinity against fully glycosylated WT human IgG1” value in assay [10] was ~57 fold. Also, in [9], the EC50 was 689 nM and the “IC50 (read off the curve)” value is ~70.

B5: 3×G4S-linked fully glycosylated 5C8 scFc IgG1 antibody (ASK048) (antibody)
heavy: not shown
light: DIVLTQSPATLSVSPGERATISCRASQRVSSSTYSYMHWYQQKPGQPPKLLIKYASNLESGVPARFSGSGSGTDFTLTISSVEPEDFATYYCQHSWEIPPTFGGGTKLEIKRTVAAPSVFIFPPSDEQLKSGTASVVCLLNNFYPREAKVQWKVDNALQSGNSQESVTEQDSKDSTYSLSSTLTLSKADYEKHKVYACEVTHQGLSSPVTKSFNRGEC
notes: also called fully glycosylated 3×G4S linked scFc
With B5, the EC50 in assay [3] amounted to 304 nM; in [4], 206 nM; in [5], 17 nM; in assay [6] it was 183 nM; in [7] it was 32 nM; in assay [8], 18 nM.
